Source: patent US20210292393A1

Molecular target: SARS-CoV-2 full length spike protein, V483A mutant (SARS-CoV-2), P0DTC2
Conditions: remark: other sources report otherwise

B1: antibody 262 (antibody, V domains shown)
VH: QVQLVESGGGVVQPGRSLRLSCAASGFTFSSYAMHWVRQAPGKGLEWVAVISYDGSNKYYADSVKGRFTISRDNSKNTLYLQMNSLRAEDTAVYYCARDGGELLWFGELDYYGMDVWGQGTTVTVSS
VL: SYELTQPSSVSVSPGQTARITCSGDVLAKKYARWFQQKPGQAPVLVIYKDSERPSGIPERFSGSSSGTTVTLTISGAQVEDEADYYCYSAADNNRGVFGGGTKLTVL
median fluorescence intensity, fold over isotype control (fold over isotype): 1.63
